In patent publication US20200231671A1 (E R SQUIBB AND SONS L L C, published 2020):
Where no end group is shown, it is not given here.

What was measured:
Assay in all cases: peptide scan ELISA
[1] = biological target: T1, LAG-3 extra loop scan peptide GPPAAAPGHPLA (human, also: conjugated to biotin, site not given here)
T1 construct: 12-mer overlapping scan peptide of the extra loop
T1 peptide: GPPAAAPGHPLA
Method: (§1) In the LAG-3 protein, the immunoglobulin-like first domain of the extracellular region contains an exposed “extra loop” having the amino acid sequence: […] (SEQ ID NO: 79). To examine the binding of 25E3, 25F7, 8B7 and 26H10 to this region of LAG-3, and map the epitope bound by each antibody, a peptide scan experiment was performed across this region. A series of 10 overlapping peptides that scanned across the full length of the extra loop sequence were prepared and conjugated to biotin. For ELISA analysis, microtiter plates pre-coated with streptavidin (Sigma-Aldrich, Cat # M5432) were used to capture the biotinylated loop peptide-conjugates applied in a 100 μl volume at a concentration of 2 μg/mL and incubated 18 hours at 4° C., after which the plates were washed 3 times and blocked at room temperature for 1 hour with blocking buffer (1×PBS+10% FBS). Next, human anti-LAG-3 antibodies serially diluted 3-fold in blocking buffer from 10 μg/mL were applied and the plates were incubated at room temperature for 2 hours and then washed three times. To detect bound human antibody a HRP-conjugated goat anti-human kappa light chain antibody (Bethyl Laboratories, Cat # A80-115P) was diluted to 1 μg/mL in blocking buffer and applied to assay wells for 1 hour followed by three washes and application of TMB substrate (eBioscience, Cat #00-4201-56). Optical density readings at 650 nm wavelength were made on a Spectramax 340PC spectrophotometer ([…].).

[2] = biological target: T2, LAG-3 extra loop scan peptide HPLAPGPHPAAP (human, also: conjugated to biotin, site not given here)
T2 construct: 12-mer overlapping scan peptide of the extra loop
T2 peptide: HPLAPGPHPAAP
Method: as §1

[3] = biological target: T3, LAG-3 extra loop scan peptide APSSWGPRPRRY (human, also: conjugated to biotin, site not given here)
T3 construct: 12-mer overlapping scan peptide of the extra loop
T3 peptide: APSSWGPRPRRY
Method: as §1

binding result [1]: no binding (tested: 10 µg/mL)
binding result [2]: no binding (tested: 10 µg/mL)
binding result [3]: no binding (tested: 10 µg/mL)
B1: 26H10 human monoclonal antibody (antibody, IgG1, V domains shown)
VH: QVQLVESGGGVVQPGRSLRLSCAASGFTFSSYGMHWVRQAPGKGLEWVAVIWYDGSNKYYADSVKGRFTISRDNSKNTLYLQMNSLRAEDTAVYYCAREWAVASWDYGMDVWGQGTTVTVSS
VL: not shown
notes: also called 26H10-FITC
